Data reported in US20230303698A1 (published 2023).

What was measured:
[1] = target: T1, human 4-1BB (human, UniProt Q07011 24-255); experiment: FACS
[2] = target: T1, human 4-1BB; experiment: FACS; FIG. 5
[3] = target: T1, human 4-1BB; experiment: FACS; FIG. 6
[4] = target: T1, human 4-1BB; experiment: FACS; panel A
[5] = target: T1, human 4-1BB; experiment: FACS; panel B
[6] = target: T1, human 4-1BB; experiment: FACS; panel A; remark: listed apart in the source
[7] = target: T1, human 4-1BB; experiment: FACS; panel B; remark: listed apart in the source
[8] = target: T1, human 4-1BB; experiment: FACS; panel C
[9] = target: T2, human PD-L1 (human, UniProt Q9NZQ7 19-290); experiment: FACS; panel A
T2 sequence (Q9NZQ7 19-290): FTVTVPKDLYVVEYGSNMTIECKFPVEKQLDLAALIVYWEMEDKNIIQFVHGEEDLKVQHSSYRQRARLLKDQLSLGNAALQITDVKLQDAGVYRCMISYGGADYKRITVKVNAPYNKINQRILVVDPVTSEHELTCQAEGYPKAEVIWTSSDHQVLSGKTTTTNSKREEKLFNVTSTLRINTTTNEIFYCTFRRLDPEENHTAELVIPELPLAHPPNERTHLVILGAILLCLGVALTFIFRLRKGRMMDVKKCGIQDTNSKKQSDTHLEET

[10] = target: T2, human PD-L1; experiment: FACS; panel B
[11] = target: T2, human PD-L1; experiment: FACS; panel C
[12] = target: T2, human PD-L1; experiment: FACS binding to CHO-K1/hPD-L1 cells

| EC50 [1] [nM] | EC50 [2] [nM] | EC50 [3] [nM] | EC50 [4] [nM] | EC50 [5] [nM] | EC50 [6] [nM] | EC50 [7] [nM] | EC50 [8] [nM] | EC50 [9] [nM] | EC50 [10] [nM] | EC50 [11] [nM] | EC50 [12] [nM] | Binder |
| --- | --- | --- | --- | --- | --- | --- | --- | --- | --- | --- | --- | --- |
| 1.51 | 0.459 | 0.459 | 1.01 | 0.347 | 0.424 | 0.794 | 1.51 | – | – | – | – | Anti-4-1BB monoclonal antibody urelumab analog (antibody, V domains shown) VH: QVQLQQWGAGLLKPSETLSLTCAVYGGSFSGYYWSWIRQSPEKGLEWIGEINHGGYVTYNPSLESRVTISVDTSKNQFSLKLSSVTAADTAVYYCARDYGPGNYDWYFDLWGRGTLVTVSS VL: EIVLTQSPATLSLSPGERATLSCRASQSVSSYLAWYQQKPGQAPRLLIYDASNRATGIPARFSGSGSGTDFTLTISSLEPEDFAVYYCQQRSNWPPALTFGGGTKVEIKR |
| – | – | – | – | – | – | – | – | 0.781 | 0.356 | 1.56 | 1.26 | PR000265, anti-PD-L1 91G3H5H3(D54E), hIgG1(N297A) (antibody, V domains shown) VH: EVQLVESGGGLVQPGGSLRLSCAASGFTFSSYWMSWVRQAPGKGLEWVANIKQEGSEKYYVDSVKGRFTISRDNAKNSLYLQMNSLRAEDTAVYYCARDRAVAGAFDIWGQGTMVTVSS VL: DIQMTQSPSTLSASVGDRVTVTCRASQSIYIWLAWYQQKPGKAPNLLIYKASSLETGVPSRFSGSGSGTEFTLTISSLQPDDFATYYCQQYYGSSRTFGQGTKVEIKR |
